# How the values were obtained:
# [1] = molecular target: plasma FXI of Maine Coon cats homozygous for the M516 variant (feline (endogenous in Maine Coon cat plasma)); assay: non-reducing SDS-PAGE with Western blot; citrated plasma (1 µL) on non-reducing 7.5% polyacrylamide gels; detected with biotinylated IgG 14E11 and streptavidin-horseradish peroxidase
# [2] = molecular target: plasma FXI of Maine Coon cats homozygous for wild-type FXI (feline (endogenous in Maine Coon cat plasma)); assay: as above
# [3] = molecular target: plasma-derived human FXI (pFXI) (human); assay: SDS-PAGE under non-reducing and reducing conditions; purified FXI on a 7.5% polyacrylamide gel, Coomassie blue stained; homodimer unreduced, monomer reduced
# [4] = molecular target: recombinant variant feline factor XI (fFXI-M516) (feline (Felis catus)); assay: as above
# [5] = molecular target: recombinant wild-type feline factor XI (fFXI-V516) (feline (Felis catus)); assay: as above
# [6] = molecular target: recombinant wild-type human factor XI (hFXI-V516) (human); assay: as above
substance,measurement,setting,value
plasma FXI of Maine Coon cats homozygous for the M516 variant (natural protein),stoichiometry N,[1],2
plasma FXI of Maine Coon cats homozygous for wild-type FXI (natural protein),stoichiometry N,[2],2
plasma-derived human FXI (pFXI) (natural protein),stoichiometry N,[3],2
recombinant variant feline factor XI (fFXI-M516) (natural protein),stoichiometry N,[4],2
recombinant wild-type feline factor XI (fFXI-V516) (natural protein),stoichiometry N,[5],2
recombinant wild-type human factor XI (hFXI-V516) (natural protein),stoichiometry N,[6],2
